The values that follow are results of earlier work, collected in paper PMC3962080.

The term Kd denotes the equilibrium constant for the complex coming apart.

This series deals with human serum albumin (Homo sapiens) (UniProt P02768).

As for “G148-ABD albumin-binding domain (from UniProt P06654)”, the Kd was 5 nM.
